Measurements as given in patent US20140057332A1, “GLUCO-OLIGOSACCHARIDE OXIDASES FROM ACREMONIUM STRICTUM AND USES THEREOF” (The Governing Council of the University of Toronto, priority 2011, published 2014).
Changes are numbered by the printed parent chain. Names and notes keep the numbering of the source.

T1: Acremonium strictum gluco-oligosaccharide oxidase GOOX-VN variant 3 W351F, SEQ ID NO. 8 (Sarocladium strictum, UniProt D7PF15, A38V/S388N/W351F)
T1 sequence (D7PF15 1-474 A38V/W351F/S388N): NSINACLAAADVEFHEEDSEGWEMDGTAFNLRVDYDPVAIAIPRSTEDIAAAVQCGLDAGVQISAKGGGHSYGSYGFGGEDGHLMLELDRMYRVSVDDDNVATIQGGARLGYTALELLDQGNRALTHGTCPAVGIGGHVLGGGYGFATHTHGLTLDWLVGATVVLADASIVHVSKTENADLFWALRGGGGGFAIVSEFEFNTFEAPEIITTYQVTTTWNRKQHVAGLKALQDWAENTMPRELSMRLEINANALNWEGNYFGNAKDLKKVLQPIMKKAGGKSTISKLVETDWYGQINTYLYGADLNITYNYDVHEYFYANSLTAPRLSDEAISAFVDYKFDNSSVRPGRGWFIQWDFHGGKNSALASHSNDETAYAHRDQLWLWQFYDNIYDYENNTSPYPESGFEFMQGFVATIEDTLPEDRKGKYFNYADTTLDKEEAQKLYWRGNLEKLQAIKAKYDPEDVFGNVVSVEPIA

T2: Acremonium strictum gluco-oligosaccharide oxidase GOOX-VN (type strain CBS 346.70, V38 and N388), SEQ ID NO. 2 (Sarocladium strictum, UniProt D7PF15, A38V/S388N)
T2 sequence (D7PF15 1-474 A38V/S388N): T1 sequence (D7PF15 1-474 A38V/W351F/S388N) with F351W

T3: Acremonium strictum gluco-oligosaccharide oxidase GOOX-VN variant 2 Y300N, SEQ ID NO. 7 (Sarocladium strictum, UniProt D7PF15, A38V/S388N/Y300N)
T3 sequence (D7PF15 1-474 A38V/Y300N/S388N): T1 sequence (D7PF15 1-474 A38V/W351F/S388N) with Y300N, F351W

T4: Acremonium strictum gluco-oligosaccharide oxidase GOOX-VN variant 1 Y300A, SEQ ID NO. 6 (Sarocladium strictum, UniProt D7PF15, A38V/S388N/Y300A)
T4 sequence (D7PF15 1-474 A38V/Y300A/S388N): T1 sequence (D7PF15 1-474 A38V/W351F/S388N) with Y300A, F351W

B1: W351A: GOOX-VN mutant with W351A substitution (protein)
chain: T1 sequence (D7PF15 1-474 A38V/W351F/S388N) with F351A
B2: Y72F: GOOX-VN mutant with Y72F substitution (protein)
chain: T1 sequence (D7PF15 1-474 A38V/W351F/S388N) with Y72F, F351W
B3: Y72A: GOOX-VN mutant with Y72A substitution (protein)
chain: T1 sequence (D7PF15 1-474 A38V/W351F/S388N) with Y72A, F351W
B4: E247A: GOOX-VN mutant with E247A substitution (protein)
chain: T1 sequence (D7PF15 1-474 A38V/W351F/S388N) with E247A, F351W
B5: Q384A: GOOX-VN mutant with Q384A substitution (protein)
chain: T1 sequence (D7PF15 1-474 A38V/W351F/S388N) with F351W, Q384A

How the values were obtained:
[1] = biological target: T1, Acremonium strictum gluco-oligosaccharide oxidase GOOX-VN variant 3 W351F, SEQ ID NO. 8; assay: Enzymatic assay, kinetic analysis (chromogenic H2O2 assay) of W351F; details: for kcat: 37° C., pH 8.0
Experimental: (§1) A chromogenic assay was used to measure hydrogen peroxide production (15). Reactions contained 0.1 mM 4aminoantipyrine (4AA), 1 mM phenol, 0.5 U horseradish peroxidase, 40 mM Tris-HCl (pH 8.0), and different substrates were initiated by adding 0.2 μg of enzymes to the 250 μL reaction mixture. The production of H2O2 was coupled to the oxidation of 4aminoantipyrine by horseradish peroxidase and detected at 500 nm. Reactions were incubated at 37° C. for 15 min to measure the specific activity of GOOX on 10 mM of monosaccharide or 1 mM of oligosaccharide.
(§2) At least 12 substrate concentrations were included to obtain kinetic parameters for each substrate. Initial rates were obtained by measuring reaction products every 30 s for 15 min at 37° C. and pH 8.0, and kinetic parameters were calculated using the Michaelis-Menten equation (GraphPad Prism5 Software).

[2] = biological target: T2, Acremonium strictum gluco-oligosaccharide oxidase GOOX-VN (type strain CBS 346.70, V38 and N388), SEQ ID NO. 2; assay: Enzymatic assay, kinetic analysis (chromogenic H2O2 assay) of GOOX-VN; details: for kcat: 37° C., pH 8.0
Experimental: as §1, §2

[3] = biological target: T3, Acremonium strictum gluco-oligosaccharide oxidase GOOX-VN variant 2 Y300N, SEQ ID NO. 7; assay: Enzymatic assay, kinetic analysis (chromogenic H2O2 assay) of Y300N; details: 37° C., pH 8.0
Experimental: as §1, §2

[4] = biological target: T4, Acremonium strictum gluco-oligosaccharide oxidase GOOX-VN variant 1 Y300A, SEQ ID NO. 6; assay: Enzymatic assay, kinetic analysis (chromogenic H2O2 assay) of Y300A; details: 37° C., pH 8.0
Experimental: as §1, §2

[5] = Chromogenic H2O2 oxidase assay on xylohexaose; details: 1 mM xylohexaose; 37° C., 15 min
Experimental: as §1
(§3) An additional eight mutations, identified as Y72F, Y72A, E247A, E314A, W351A, N388S, Q353N, Q384A, were created in GOOX-VN to assess the influence of these residues on the substrate selectivity of GOOX-VN. […] The specific activity of each mutant was then measured at 37° C. for 15 min using 10 mM mono-sugars and 1 mM oligosaccharides as performed for Y300A, Y300N, and W351F (Table 11).

[6] = Chromogenic H2O2 oxidase assay on xylotetraose; details: 1 mM xylotetraose; 37° C., 15 min
Experimental: as §1, §3

[7] = Chromogenic H2O2 oxidase assay on xylopentaose; details: 1 mM xylopentaose; 37° C., 15 min
Experimental: as §1, §3

[8] = Chromogenic H2O2 oxidase assay / kinetic analysis on xylotriose; details: 1 mM xylotriose; 37° C., 15 min
[9] = Chromogenic H2O2 oxidase assay / kinetic analysis on galactose; details: 10 mM galactose; 37° C., 15 min
Experimental: as §1, §2

[10] = Chromogenic H2O2 oxidase assay / kinetic analysis on cellotriose; details: 1 mM cellotriose; 37° C., 15 min
Experimental: as §1, §2

[11] = Chromogenic H2O2 oxidase assay / kinetic analysis on xylobiose; details: 1 mM xylobiose; 37° C., 15 min
Experimental: as §1, §2

[12] = Chromogenic H2O2 oxidase assay / kinetic analysis on cellobiose; details: 1 mM cellobiose; 37° C., 15 min
[13] = Chromogenic H2O2 oxidase assay / kinetic analysis on glucose; details: 10 mM glucose; 37° C., 15 min
Experimental: as §1, §2

Molecule | kcat [1] | kcat [2] | kcat [3] | kcat [4] | Specific Activity of Enzyme Variants [5] | Specific Activity of Enzyme Variants [7] | Specific Activity of Enzyme Variants [10] | Specific Activity of Enzyme Variants [12] | also measured
CC(=O)N[C@H]1C(O)O[C@H](CO)[C@@H](O)[C@@H]1O (stereo partly shown) [NAG, N-acetylglucosamine] | 7.785 ± 0.718 s⁻¹ | 8.078 ± 0.203 s⁻¹ | 11.34 ± 0.113 s⁻¹ | – | – | – | – | – | –
OC1OC[C@@H](O)[C@H](O)[C@H]1O (stereo partly shown) [Xylose, xylose] | 4.618 ± 0.0633 s⁻¹ | 5.248 ± 0.15 s⁻¹ | 9.932 ± 0.172 s⁻¹ | 11.33 ± 0.137 s⁻¹ | – | – | – | – | change of Km versus GOOX-VN (in words) ([1]; W351F compared with GOOX-VN): increased
OC1OC[C@@H](O[C@@H]2OC[C@@H](O)[C@H](O)[C@H]2O)[C@H](O)[C@H]1O (stereo partly shown) [Xylobiose, xylobiose] | – | – | 11.96 ± 0.125 s⁻¹ | 13.29 ± 0.122 s⁻¹ | – | – | – | – | –
OC[C@H]1OC(O)[C@H](O)[C@@H](O)[C@@H]1O (stereo partly shown) [Glucose, glucose] | 5.622 ± 0.08 s⁻¹ | 7.485 ± 0.0917 s⁻¹ | 10.81 ± 0.103 s⁻¹ | 13.22 ± 0.24 s⁻¹ | – | – | – | – | change of Km versus GOOX-VN (in words) ([1]; W351F compared with GOOX-VN): increased; catalytic efficiency (in words) ([2]; among glucose, xylose, galactose, NAG): highest catalytic efficiency
OC[C@H]1OC(O)[C@H](O)[C@@H](O)[C@H]1O (stereo partly shown) [Galactose, galactose] | 6.56 ± 0.075 s⁻¹ | 7.152 ± 0.137 s⁻¹ | 11.76 ± 0.0883 s⁻¹ | 13.3 ± 0.245 s⁻¹ | – | – | – | – | change of Km versus GOOX-VN (in words) ([1]; W351F compared with GOOX-VN): decreased; change of catalytic efficiency versus GOOX-VN (in words) ([1]; W351F compared with GOOX-VN): higher catalytic efficiency
OC1OC[C@@H](O[C@@H]2OC[C@@H](O[C@@H]3OC[C@@H](O)[C@H](O)[C@H]3O)[C@H](O)[C@H]2O)[C@H](O)[C@H]1O (stereo partly shown) [Xylotriose, xylotriose] | – | – | 11.97 ± 0.185 s⁻¹ | 13.87 ± 0.11 s⁻¹ | – | – | – | – | –
OC[C@H]1O[C@@H](O[C@H]2[C@H](O)[C@@H](O)C(O)O[C@@H]2CO)[C@H](O)[C@@H](O)[C@@H]1O (stereo partly shown) [Cellobiose, cellobiose] | – | – | 11.4 ± 0.187 s⁻¹ | 13.72 ± 0.258 s⁻¹ | – | – | – | – | –
B1 | – | – | – | – | 0.5 µmol/min/mg | 0.3 µmol/min/mg | 1.1 µmol/min/mg | 0.6 µmol/min/mg | Specific Activity of Enzyme Variants [6]: 0.3 µmol/min/mg; Specific Activity of Enzyme Variants [8]: 0.1 µmol/min/mg; Specific Activity of Enzyme Variants [9]: 0.3 µmol/min/mg; Specific Activity of Enzyme Variants [11]: 0.1 µmol/min/mg
B2 | – | – | – | – | – | 0.4 µmol/min/mg | 0.5 µmol/min/mg | 0.2 µmol/min/mg | –
B3 | – | – | – | – | 2.2 µmol/min/mg | 3.2 µmol/min/mg | 2.1 µmol/min/mg | 1.1 µmol/min/mg | Specific Activity of Enzyme Variants [6]: 2.5 µmol/min/mg; Specific Activity of Enzyme Variants [8]: 1.3 µmol/min/mg; Specific Activity of Enzyme Variants [11]: 0.5 µmol/min/mg
B4 | – | – | – | – | 5.1 µmol/min/mg | 5.2 µmol/min/mg | 2.7 µmol/min/mg | 2.2 µmol/min/mg | Specific Activity of Enzyme Variants [6]: 5.3 µmol/min/mg; Specific Activity of Enzyme Variants [13]: 0.4 µmol/min/mg; Specific Activity of Enzyme Variants [8]: 3.5 µmol/min/mg; Specific Activity of Enzyme Variants [11]: 4.2 µmol/min/mg
B5 | – | – | – | – | 0.1 µmol/min/mg | – | 0.4 µmol/min/mg | 0.2 µmol/min/mg | –
